Results: patent US20190046652A1 (AADIGEN, published 2019)
Ends that are not written are not given here.

B1: C4 (peptide)
peptide: KKQVRMAHLVLT
modifications: not fully specified
B2: C2 (peptide)
peptide: KKQVLAMEHLVT
modifications: not fully specified
B4: PC4, also noted PC4D (peptide)
peptide: RWTEWEWW
modifications: also: cyclic version, linkage not given here

Columns and labels:
CDK4/cyclin D complex = CDK4/cyclin D complex (UniProt P11802 2-303); assay: cell-based or functional assay
cdk2/cyclin A complex = cdk2/cyclin A complex (UniProt P24941 1-298; P20248 1-432); assay: cell-based or functional assay
HIV integrase = HIV integrase (HIV-1-LAI, UniProt P03367 1160-1447); assay: cell-based or functional assay
C4 = biological target: B1; assay: fluorescence titration, curve fitting
C2 = biological target: B2; assay: fluorescence titration, curve fitting
PC4, also noted PC4D = biological target: B4; assay: fluorescence titration, curve fitting

Chain of CDK4/cyclin D complex (P11802 2-303, one chain of several): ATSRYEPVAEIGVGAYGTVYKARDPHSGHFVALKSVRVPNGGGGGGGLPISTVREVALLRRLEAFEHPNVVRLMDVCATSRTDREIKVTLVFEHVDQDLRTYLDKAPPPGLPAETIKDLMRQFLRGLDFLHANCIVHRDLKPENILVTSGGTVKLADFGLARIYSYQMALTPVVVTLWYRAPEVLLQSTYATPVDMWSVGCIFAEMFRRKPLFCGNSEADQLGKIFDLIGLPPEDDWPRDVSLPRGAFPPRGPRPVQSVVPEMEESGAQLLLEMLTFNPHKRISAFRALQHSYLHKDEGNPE

Binder: B1
- IC50, proliferation of HEK-2 cells (C4 delivered by VEPEP-3) (CDK4/cyclin D complex): 78 nM
- IC50, proliferation of Hela cells (C4 delivered by VEPEP-3) (CDK4/cyclin D complex): 35 nM
- IC50, proliferation of MCF7 cells (C4 delivered by VEPEP-3) (CDK4/cyclin D complex): 58 nM

Binder: B2
- IC50, proliferation of HEK-2 cells (C2 delivered by VEPEP-3) (cdk2/cyclin A complex): 102 nM
- IC50, proliferation of Hela cells (C2 delivered by VEPEP-3) (cdk2/cyclin A complex): 37 nM

B3: PC6, also noted PC6D (peptide)
peptide: KWETWWET
- IC50, antiviral activity (RT activity in supernatants of HIV-1 LAI infected PBMC), peptide with VEPEP-3 carrier (HIV integrase): 0.09 nM

Binder: B4
- IC50, antiviral activity (RT activity in supernatants of HIV-1 LAI infected PBMC), peptide with VEPEP-3 carrier (HIV integrase): 0.12 nM

B5: VEPEP-3a (peptide)
peptide: XKWFERWFREWPRKRR
HELM: PEPTIDE1{[ac].[bAla].K.W.F.E.R.W.F.R.E.W.P.R.K.R.R.[SCCN[*:1]]}$$$$V2.0
SMILES: CC(=O)NCCC(=O)N[C@@H](CCCCN)C(=O)N[C@@H](Cc1c[nH]c2ccccc12)C(=O)N[C@@H](Cc1ccccc1)C(=O)N[C@@H](CCC(=O)O)C(=O)N[C@@H](CCCNC(=N)N)C(=O)N[C@@H](Cc1c[nH]c2ccccc12)C(=O)N[C@@H](Cc1ccccc1)C(=O)N[C@@H](CCCNC(=N)N)C(=O)N[C@@H](CCC(=O)O)C(=O)N[C@@H](Cc1c[nH]c2ccccc12)C(=O)N1CCC[C@H]1C(=O)N[C@@H](CCCNC(=N)N)C(=O)N[C@@H](CCCCN)C(=O)N[C@@H](CCCNC(=N)N)C(=O)N[C@@H](CCCNC(=N)N)C(=O)NCCS
notes: Synthetic cell-penetrating peptide
- binding result (C4): binds
- binding result (C2): binds
- Kd (PC4, also noted PC4D): 50 to 100 nM
